Publication PMC5653232 (Cell reports, 2017)

Legend:
[1] = tested on: CHD3 PHD1/2; assay: Tryptophan fluorescence, linked CHD3 PHD1/2 with histone H3 peptides; type: binding; conditions: either peptide; apparent Kds measured by tryptophan fluorescence
[2] = target: H3K9Cme3-NCP; assay: Fluorescence polarization, CHD3 PHD1/2 with H3K9Cme3-NCP; type: binding, human; conditions: read-out: apparent dissociation constant Kd (H3K9Cme3-NCP), 5 nM nucleosomes, 15 mM Tris pH 7.5, 75 mM NaCl, 0.00625% Tween20, 3 mM DTT, three separate experiments
[3] = tested on: Cy3-Cy5-H3K9Cme3-NCP; assay: FRET nucleosome unwrapping, Cy3-Cy5-H3K9Cme3-NCP; type: biochemical, human

B1: CHD3 PHD1/2: natively linked tandem PHD fingers of CHD3, construct PHD1/2 (373–508) (protein)
chain: GYETDHQDYCEVCQQGGEIILCDTCPRAYHLVCLDPELDRAPEGKWSCPHCEKEGVQWEAKEEEEEYEEEGEEEGEKEEEDDHMEYCRVCKDGGELLCCDACISSYHIHCLNPPLPDIPNGEWLCPRCTCPVLKGR
modifications: left off: GST, end not stated, cleaved
For B1, the “fold stronger binding of linked PHD1/2 than unlinked individual domains” value [1] was ~10^2 fold, the Kd [2] was 1.4 µM and the “change in FRET efficiency by CHD3 PHD1/2 without LA” value ([3]; CHD3 PHD1/2 up to 300 µM) was “no measurable change in the FRET efficiency”. For the same molecule, the “change in FRET efficiency by CHD3 PHD1/2 with LA” value ([3]; LA at a concentration equivalent to the LA S1/2) was “reduced substantially”.
